Assay results published in the supplement of paper PMC12636428.

System: Saccharomyces cerevisiae
Experiment: transcriptional activation domain activity (GFP:mCherry ratio, weighted mean of sorted bins, harmonized to initial dataset scale) (arbitrary fluorescence ratio units); higher = stronger transcriptional activation
Details: beta-estradiol 1 µM; induction time 4 h
How it was run: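 Sorting into 8 bins by GFP:mCherry ratio followed a 4-hour hold at 30 °C after cultures were diluted 1:5 into SC with 1 uM beta-estradiol. The yeast diploids carried a GFP reporter and had barcoded protein tiles, fused to an estradiol-inducible synthetic transcription factor, integrated at URA3. Barcodes were then sequenced, and tiles with under 50 reads were removed. Activation activity is the read-weighted mean of bin median fluorescence, averaged across barcodes and linearly mapped onto the initial dataset scale.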

Sequence	transcriptional activation domain activity
EMAVACISVLILIGYNTIILYVYPLYPTRSPLRLSETYINHLLSNFLWWFIMF	59100
EMGLSTAPGHQTAEFTITGIGLILKTLWLCADLITFLLSLQRLIFHALVLLFS	64300
EMGTLAALLWQPEIRDLTTYLRDIRVAVANVLDVFAMIEPSRLIAKIKIHLLA	43100
EMIMGFFFKNIVWTLTLFWYQIFCQFNGSMMFDYALVTLFNLVFTSLPIMCMG	52100
EMLSASKGRKKARMEEEDEDEWAGDGASKAKAKGKKAAKKPAKARAPKGKAAA	37400
EMRHVILIVFIGMVGCWISQWVFWVGFLKLYSGQGYCPPRLGTLALNWILFSV	43200
EMVDIFAHMDNIERLIAPFSVLAEHEVFHFNMLRIYYLTLRLLVLLHGVIEVK	75200
EMVKTESVATSSTTTTKTESEGAVVKEEKMASPSPTRVKVEKVEVKRVPTISL	15700
ENAGNENAVDVENAGNENTAPEAKGKKNKGNAAANENAAGNAQAGEAGQVAAN	47200
ENASEPQKQEAEEKPKSTTAASTSVPRSSKPSVEAKPVRKSRRTGAQRRAPSQ	38800
ENDGEEVEGEEKESSQGAGGLMGRFTKETDDVRLGASQNIGLVLQYLTSFIAC	17000
ENEDDAFGALNYNSLDATTMSAFDNNVDPFNILKSSPAQDQQFIKPSMMLSDN	77200
ENEQDSLALDDLDRAFELVEGMDMDWMMPSHAHHSPATTATIKPRLLYSPLIH	74200
ENGRNLLRELLIFVAAWDLREEELYFKFMVKILESILVNGYLPYAYHAFREYD	62000
ENHPPGVAAQILIARISWILWHSVEQIRITVWVVGRKFMMVLLQGTVPRISVR	71600
ENKKEEPKSAKPTSKKAEKPVSKKADAETGEKRAADETKPAEKPASKKAKTDA	30800
ENLRTVGLGSVRDICLRNASEQAILTIIDFPLRVLAMIAQIRTGLWVRNGFAI	53000

Sequence	transcriptional activation domain activity
ENNDQFNNKTRKRKRRMSSTSSTSKASRKNSISRKNSAVTTAPAQKDDVENNK	< 6570
ENNNYAVDLAKSNGMHIVGIQGSDIVDGRKTLVLGLVWQLMRLSIYKTLSSLT	41900
ENNVPLLERFREFPWLLSDLIFPFMMEYMLVWYLIWETILNILAELTYFADRS	27300
ENSEDALHNSETMDLLGTLSHGNDFALEYNFDFTLLNEIDMLIGGNTNDGLSK	101000
ENTRHRIFSIFRKSDLGLYALRGSQTLMNYSRVLGLLIRKWVITALRVCMWLG	53000
ENVRGIMTENIERVLERGERIDLLVDKTGRLNVNAGEFRRRSRGLRRRMWWKN	37700
ENVYRPFLMVYTEAIILIFSFYLIILYIVLFTFLEGYPYIFSRVYGISDSLTF	40900
EPAAEGAAGADKPAEEAKPAEDKPAETKPEETAEGAKTEETPAPAESAAAPAA	37800
EPAEEDSKPEEPAAAAEPEAEVKEEPAEEPAAPAEPKAEAEPEKADETPAAEA	24000
EPAEEEEEEDDDDEDDPEVRRKEELRARMAKMSAGMGGMGGMMNPFAAPVAPG	62200
EPAETPAETPAPVEPVVEEKKEETPAPVKETPAPTPNPAAAPAPQQQQPAAAK	26400
EPAVVKAVAAVAAQDGGDGREEHRREKKKKKKKREKREKRELVAGQEGGGGEG	< 6570
EPEQVEAVVEVEEKQEEVKPVEEEIKVEQPVVEQQQEEPTPVVSQVPASTPLP	< 6570
EPERKQSRRRQSRGRGRKGVADSDTESVPRSDVSASGGRRNRQRQRQKGGKQQ	48900
EPESKPAPARGAQPAQRGNFRGGRGGHRGARGGRGRGGYQERPRRQEEEKPTK	9620
EPFHLQHQSNHVYGKIVIGDSLMDEWFIVYLLRELSLWLDHLVIRYIYRRLMI	59900
EPGEEYHHSNGTNTDNNETTGADDTDDNNNNNNNNNKNGNNSSSTINNNNNNY	35700
